Experiments:
c-Src = assay: phosphorylation enrichment, bacterial display (enrichment ratio); higher = better substrate or ligand; peptides without Tyr show the background
EPHB1 = EPHB1 (UniProt P54762); assay: as above
Hck = Hck (UniProt P08631); assay: as above
FGFR3 = FGFR3 (UniProt P22607); assay: as above
c-Abl (mouse) = assay: as above
Fyn = Fyn (UniProt P06241); assay: as above
EPHB2 = EPHB2 (UniProt P29323); assay: as above
Jak2 = Jak2 (UniProt O60674); assay: as above
Fes = Fes (UniProt P07332); assay: as above
AncSZ = assay: as above
MERTK = MERTK (UniProt Q12866); assay: as above
Sequence of MERTK (Q12866 whole entry, looked up): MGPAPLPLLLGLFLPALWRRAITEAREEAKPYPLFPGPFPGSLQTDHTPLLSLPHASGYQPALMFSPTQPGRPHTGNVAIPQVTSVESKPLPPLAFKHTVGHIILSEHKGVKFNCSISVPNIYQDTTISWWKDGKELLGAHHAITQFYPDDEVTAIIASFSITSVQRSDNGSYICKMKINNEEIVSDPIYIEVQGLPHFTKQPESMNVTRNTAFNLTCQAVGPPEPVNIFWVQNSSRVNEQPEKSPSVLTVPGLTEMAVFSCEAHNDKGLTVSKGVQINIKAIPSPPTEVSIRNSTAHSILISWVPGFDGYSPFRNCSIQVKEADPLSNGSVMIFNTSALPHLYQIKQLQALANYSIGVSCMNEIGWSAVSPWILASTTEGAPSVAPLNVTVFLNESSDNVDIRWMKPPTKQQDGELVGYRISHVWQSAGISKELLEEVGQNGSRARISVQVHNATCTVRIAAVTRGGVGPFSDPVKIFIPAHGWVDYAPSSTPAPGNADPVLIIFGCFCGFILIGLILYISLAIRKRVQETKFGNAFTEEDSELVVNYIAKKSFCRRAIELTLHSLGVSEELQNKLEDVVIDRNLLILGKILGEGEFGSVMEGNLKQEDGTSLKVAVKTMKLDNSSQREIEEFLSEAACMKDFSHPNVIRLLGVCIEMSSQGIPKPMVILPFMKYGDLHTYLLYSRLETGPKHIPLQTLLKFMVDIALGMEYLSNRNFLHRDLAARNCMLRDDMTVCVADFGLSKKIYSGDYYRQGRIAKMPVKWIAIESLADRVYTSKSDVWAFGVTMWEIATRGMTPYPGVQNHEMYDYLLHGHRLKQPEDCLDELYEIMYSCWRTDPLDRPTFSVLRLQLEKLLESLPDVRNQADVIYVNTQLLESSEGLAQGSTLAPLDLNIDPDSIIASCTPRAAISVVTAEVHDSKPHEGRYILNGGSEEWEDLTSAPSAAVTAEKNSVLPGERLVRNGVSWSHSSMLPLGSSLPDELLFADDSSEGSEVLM

Fer (mouse) = assay: as above
FGFR1 = FGFR1 (UniProt P11362); assay: as above
Grb2 SH2 = Grb2 SH2 (UniProt P62993); assay: SH2 binding enrichment of the phosphorylated peptide, bacterial display (enrichment ratio); higher = better substrate or ligand; peptides without Tyr show the background
Sequence of Grb2 SH2 (P62993 whole entry, looked up): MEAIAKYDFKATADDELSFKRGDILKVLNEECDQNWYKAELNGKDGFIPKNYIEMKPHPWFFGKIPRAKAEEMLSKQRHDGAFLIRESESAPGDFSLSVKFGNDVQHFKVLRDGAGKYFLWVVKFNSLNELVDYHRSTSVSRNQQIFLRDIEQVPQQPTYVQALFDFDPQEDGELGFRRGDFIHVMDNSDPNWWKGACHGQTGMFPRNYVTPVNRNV

SHP2-C SH2 = assay: as above
c-Src SH2 = assay: as above
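Wherever SH2 binding enrichment of the phosphorylated peptide, bacterial display is given: peptide library displayed on the E. coli surface as eCPX fusions, selected cells deep-sequenced, score is each peptide's frequency after selection divided by its frequency in the input.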
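Wherever phosphorylation enrichment, bacterial display is given: 11-residue human phosphosite peptides and single-mutation variants displayed on the E. coli surface, counted by deep sequencing, each peptide's frequency after selection divided by its frequency in the unselected input library; frequency after pTyr selection over input frequency; kinase dosed for 20-30% of maximal phosphorylation in three min.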

Sequence of Jak2 (O60674 whole entry, looked up): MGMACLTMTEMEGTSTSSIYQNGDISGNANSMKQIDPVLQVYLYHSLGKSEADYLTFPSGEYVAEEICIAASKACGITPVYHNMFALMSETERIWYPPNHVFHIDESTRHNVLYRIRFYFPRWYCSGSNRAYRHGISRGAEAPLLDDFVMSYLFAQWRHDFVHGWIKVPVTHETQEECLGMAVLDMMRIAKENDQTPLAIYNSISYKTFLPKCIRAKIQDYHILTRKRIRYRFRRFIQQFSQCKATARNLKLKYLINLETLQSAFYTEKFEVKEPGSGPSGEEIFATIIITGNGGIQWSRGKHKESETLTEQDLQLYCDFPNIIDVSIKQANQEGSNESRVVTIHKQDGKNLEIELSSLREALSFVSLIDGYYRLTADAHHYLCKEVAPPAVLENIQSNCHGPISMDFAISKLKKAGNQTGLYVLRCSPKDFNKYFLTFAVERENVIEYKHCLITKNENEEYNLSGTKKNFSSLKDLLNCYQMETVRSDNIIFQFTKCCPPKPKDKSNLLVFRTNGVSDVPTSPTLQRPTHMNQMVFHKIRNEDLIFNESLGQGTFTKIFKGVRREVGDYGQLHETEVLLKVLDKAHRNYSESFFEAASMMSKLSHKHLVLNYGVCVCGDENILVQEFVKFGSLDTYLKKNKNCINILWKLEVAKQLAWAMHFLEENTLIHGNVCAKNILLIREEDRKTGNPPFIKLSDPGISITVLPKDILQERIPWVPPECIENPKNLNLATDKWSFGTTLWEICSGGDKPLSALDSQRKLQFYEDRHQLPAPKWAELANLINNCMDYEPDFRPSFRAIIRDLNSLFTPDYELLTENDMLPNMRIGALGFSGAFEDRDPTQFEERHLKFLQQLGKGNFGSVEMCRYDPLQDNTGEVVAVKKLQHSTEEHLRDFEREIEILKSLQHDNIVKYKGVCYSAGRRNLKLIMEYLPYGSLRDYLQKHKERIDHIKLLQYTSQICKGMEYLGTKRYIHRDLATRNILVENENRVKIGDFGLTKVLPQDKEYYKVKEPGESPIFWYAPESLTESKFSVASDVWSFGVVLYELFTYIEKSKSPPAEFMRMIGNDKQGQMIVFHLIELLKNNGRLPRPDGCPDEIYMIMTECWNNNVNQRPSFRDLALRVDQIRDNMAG
Sequence of Hck (P08631 whole entry, looked up): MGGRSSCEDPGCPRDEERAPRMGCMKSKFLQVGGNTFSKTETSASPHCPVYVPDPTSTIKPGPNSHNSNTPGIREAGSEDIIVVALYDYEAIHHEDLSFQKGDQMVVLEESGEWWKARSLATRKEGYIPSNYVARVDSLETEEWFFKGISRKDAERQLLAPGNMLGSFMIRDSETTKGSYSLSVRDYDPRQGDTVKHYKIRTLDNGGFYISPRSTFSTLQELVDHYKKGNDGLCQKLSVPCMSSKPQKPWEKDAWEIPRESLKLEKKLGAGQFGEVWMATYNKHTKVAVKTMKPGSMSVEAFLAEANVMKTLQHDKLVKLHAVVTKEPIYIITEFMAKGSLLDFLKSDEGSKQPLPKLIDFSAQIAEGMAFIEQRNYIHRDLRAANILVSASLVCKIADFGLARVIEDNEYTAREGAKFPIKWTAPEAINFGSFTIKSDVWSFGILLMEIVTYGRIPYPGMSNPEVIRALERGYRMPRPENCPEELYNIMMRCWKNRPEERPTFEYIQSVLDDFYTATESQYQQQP
Sequence of EPHB1 (P54762 whole entry, looked up): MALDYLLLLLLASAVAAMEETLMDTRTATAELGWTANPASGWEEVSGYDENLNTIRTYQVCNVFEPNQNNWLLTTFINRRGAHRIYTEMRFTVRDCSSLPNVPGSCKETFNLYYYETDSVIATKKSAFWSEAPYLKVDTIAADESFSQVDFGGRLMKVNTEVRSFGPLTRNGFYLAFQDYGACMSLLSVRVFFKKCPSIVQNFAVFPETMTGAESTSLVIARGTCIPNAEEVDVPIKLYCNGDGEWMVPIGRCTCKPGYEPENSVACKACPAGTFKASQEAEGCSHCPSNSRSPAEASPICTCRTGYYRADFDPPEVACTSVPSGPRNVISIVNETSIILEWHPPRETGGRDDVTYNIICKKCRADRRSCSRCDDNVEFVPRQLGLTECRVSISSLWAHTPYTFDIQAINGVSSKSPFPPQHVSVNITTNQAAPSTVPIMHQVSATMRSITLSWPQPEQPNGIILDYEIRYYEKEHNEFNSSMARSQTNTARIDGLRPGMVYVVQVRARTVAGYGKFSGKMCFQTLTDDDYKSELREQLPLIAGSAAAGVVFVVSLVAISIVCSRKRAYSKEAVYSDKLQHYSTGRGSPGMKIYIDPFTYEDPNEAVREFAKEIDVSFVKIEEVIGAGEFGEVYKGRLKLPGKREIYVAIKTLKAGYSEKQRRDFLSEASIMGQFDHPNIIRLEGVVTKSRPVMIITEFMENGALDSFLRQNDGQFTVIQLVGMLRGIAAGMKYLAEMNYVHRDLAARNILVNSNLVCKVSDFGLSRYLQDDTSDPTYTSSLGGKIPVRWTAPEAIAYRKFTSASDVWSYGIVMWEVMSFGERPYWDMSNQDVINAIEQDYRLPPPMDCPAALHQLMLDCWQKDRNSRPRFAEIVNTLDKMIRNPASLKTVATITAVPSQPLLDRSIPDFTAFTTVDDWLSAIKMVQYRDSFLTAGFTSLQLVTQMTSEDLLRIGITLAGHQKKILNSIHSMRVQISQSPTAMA
Sequence of EPHB2 (P29323 whole entry, looked up): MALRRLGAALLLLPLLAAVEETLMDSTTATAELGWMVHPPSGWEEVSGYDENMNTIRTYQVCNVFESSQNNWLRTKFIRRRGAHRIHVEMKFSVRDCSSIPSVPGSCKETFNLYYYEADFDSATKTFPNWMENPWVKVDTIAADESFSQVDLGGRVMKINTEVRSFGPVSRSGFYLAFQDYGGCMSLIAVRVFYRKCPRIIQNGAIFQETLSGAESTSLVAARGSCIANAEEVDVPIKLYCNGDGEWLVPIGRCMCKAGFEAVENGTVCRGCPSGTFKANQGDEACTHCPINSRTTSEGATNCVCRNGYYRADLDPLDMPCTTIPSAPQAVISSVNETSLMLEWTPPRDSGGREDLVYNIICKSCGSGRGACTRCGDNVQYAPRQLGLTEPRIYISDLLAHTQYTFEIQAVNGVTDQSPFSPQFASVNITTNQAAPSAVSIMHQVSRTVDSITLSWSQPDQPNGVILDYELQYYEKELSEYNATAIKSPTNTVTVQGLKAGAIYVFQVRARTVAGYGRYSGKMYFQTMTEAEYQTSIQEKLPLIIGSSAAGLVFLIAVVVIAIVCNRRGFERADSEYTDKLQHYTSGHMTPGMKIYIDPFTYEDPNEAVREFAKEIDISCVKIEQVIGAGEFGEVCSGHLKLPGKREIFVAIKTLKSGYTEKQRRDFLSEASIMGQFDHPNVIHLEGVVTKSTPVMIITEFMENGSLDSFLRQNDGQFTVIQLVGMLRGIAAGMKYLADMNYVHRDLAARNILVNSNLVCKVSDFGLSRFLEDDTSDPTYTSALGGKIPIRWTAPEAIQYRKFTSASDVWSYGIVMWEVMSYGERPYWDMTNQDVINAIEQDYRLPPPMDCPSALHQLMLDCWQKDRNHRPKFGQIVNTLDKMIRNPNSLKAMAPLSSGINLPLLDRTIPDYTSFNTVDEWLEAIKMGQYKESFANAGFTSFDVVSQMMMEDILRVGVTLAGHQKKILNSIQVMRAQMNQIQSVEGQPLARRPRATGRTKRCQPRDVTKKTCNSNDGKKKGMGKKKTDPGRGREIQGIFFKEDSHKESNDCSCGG

Row | Sequence | phosphorylation enrichment (c-Src) | phosphorylation enrichment (EPHB1) | phosphorylation enrichment (Hck) | phosphorylation enrichment (FGFR3) | phosphorylation enrichment (c-Abl (mouse)) | phosphorylation enrichment (Fyn) | phosphorylation enrichment (EPHB2) | phosphorylation enrichment (Jak2) | phosphorylation enrichment (Fes) | phosphorylation enrichment (AncSZ) | phosphorylation enrichment (MERTK) | phosphorylation enrichment (Fer (mouse)) | phosphorylation enrichment (FGFR1) | SH2 binding enrichment (Grb2 SH2) | SH2 binding enrichment (SHP2-C SH2) | SH2 binding enrichment (c-Src SH2)
1 | RRNTCYASIAK [ACADM_Y353_Y352C] | 0.279 | 0.287 | 0.391 | 0.347 | 0.333 | 0.4 | 0.332 | 0.294 | 0.467 | 0.369 | 0.332 | 0.424 | 0.272 | 0.784 | 7.11 | 3.02
2 | SVTCRYSPALN [TP53_Y126_T125R] | 0.427 | 0.508 | 0.392 | 0.561 | 0.611 | 0.397 | 0.446 | 0.805 | 0.938 | 0.864 | 0.514 | 0.437 | 0.413 | 0.663 | 0.539 | 0.366
3 | KRAIGHFSATS [FAM120A_Y327_Y327H_YF] | 0.387 | 0.407 | 0.397 | 0.39 | 0.402 | 0.351 | 0.332 | 0.456 | 0.42 | 0.423 | 0.371 | 0.338 | 0.335 | 0.852 | 0.66 | 0.525
4 | SSAETYSRMCL [NBEAL2_Y1835_R1839C] | 0.708 | 0.649 | 0.859 | 0.669 | 0.849 | 0.526 | 0.616 | 0.695 | 0.851 | 0.84 | 0.561 | 1.01 | 0.426 | 0.73 | 0.486 | 0.545
5 | CPPEVYAIMRG [NTRK1_Y757] | 2.39 | 0.976 | 2 | 0.765 | 0.695 | 1.25 | 0.564 | 0.87 | 1.12 | 1.24 | 1.16 | 0.51 | 0.455 | 1.3 | 0.9 | 0.814
6 | VAVTKYCKEEF [ATP7B_Y1078_L1083F] | 0.462 | 0.605 | 0.458 | 0.624 | 0.707 | 0.459 | 0.568 | 0.959 | 1.05 | 0.887 | 0.357 | 0.487 | 0.563 | 0.862 | 0.598 | 0.501
7 | RAWPPYTVAAD [ANKZF1_Y572_R569W] | 0.618 | 0.678 | 0.597 | 0.589 | 0.737 | 0.571 | 0.517 | 0.683 | 1.11 | 0.884 | 0.475 | 0.631 | 0.573 | 1.08 | 0.697 | 0.556
8 | QGIIIYRAAFF [SLC25A4_Y187_YF] | 0.542 | 0.605 | 0.422 | 0.634 | 1.04 | 0.342 | 0.338 | 1.17 | 1.69 | 1.21 | 0.61 | 0.581 | 0.327 | 0.699 | 0.772 | 0.307
9 | NIQKKYYRAIL [CHD7_Y1217] | 0.371 | 0.346 | 0.355 | 0.595 | 0.563 | 0.443 | 0.375 | 0.494 | 0.543 | 0.502 | 0.345 | 0.533 | 0.472 | 1.09 | 1.09 | 0.898
10 | MFFSKYDRDND [FGB_Y408_T407K] | 0.426 | 0.493 | 0.589 | 0.66 | 0.717 | 0.501 | 0.488 | 0.845 | 1.01 | 0.817 | 0.486 | 0.51 | 0.47 | 1.07 | 0.801 | 0.447
11 | GVTLLYYGRYN [ADGRD1_Y85] | 3.17 | 0.808 | 2.13 | 0.826 | 0.852 | 2.77 | 0.92 | 1.85 | 1.31 | 1.5 | 0.728 | 0.577 | 0.611 | 1.28 | 1.24 | 1.05
12 | DVELLYPLKEK [EPHX1_Y283_V285L] | 0.439 | 0.395 | 0.495 | 0.751 | 0.695 | 0.484 | 0.438 | 0.866 | 1 | 1.08 | 0.426 | 0.422 | 0.452 | 0.893 | 0.787 | 0.448
13 | FRNKPYISWPS [CDC42BPB_Y1638_S1633Y_YF] | 0.445 | 0.255 | 0.414 | 0.427 | 0.36 | 0.345 | 0.33 | 0.424 | 0.552 | 0.457 | 0.417 | 0.366 | 0.408 | 1.99 | 1.77 | 1.6
14 | PIMSFYAALID [RYR1_Y2426_A2421P] | 0.487 | 1.45 | 0.647 | 1.33 | 0.905 | 0.49 | 1.24 | 1.54 | 1.46 | 1.58 | 0.732 | 0.734 | 0.706 | 0.969 | 0.585 | 0.571
15 | GDNSIYVTKII [DLG1_Y349] | 0.768 | 0.472 | 0.863 | 0.537 | 0.518 | 0.622 | 0.693 | 0.689 | 0.782 | 0.748 | 0.524 | 0.521 | 0.523 | 0.878 | 0.661 | 0.36
16 | TRNREYDDIDD [TTYH2_Y424_D423E] | 0.581 | 0.53 | 0.609 | 0.693 | 0.54 | 0.585 | 0.496 | 0.57 | 0.789 | 0.904 | 0.559 | 0.533 | 0.548 | 0.589 | 0.358 | 0.545
17 | YEHVGYTTLNR [CHN1_Y148] | 0.655 | 0.616 | 2.79 | 0.597 | 1.01 | 0.657 | 0.758 | 0.725 | 0.658 | 0.72 | 4.18 | 4.18 | 0.725 | 0.904 | 19.4 | 16.5

Row | Sequence | phosphorylation enrichment (c-Src) | phosphorylation enrichment (EPHB1) | phosphorylation enrichment (Hck) | phosphorylation enrichment (FGFR3) | phosphorylation enrichment (c-Abl (mouse)) | phosphorylation enrichment (Fyn) | phosphorylation enrichment (EPHB2) | phosphorylation enrichment (Jak2) | phosphorylation enrichment (Fes) | phosphorylation enrichment (AncSZ) | phosphorylation enrichment (MERTK) | phosphorylation enrichment (Fer (mouse)) | phosphorylation enrichment (FGFR1) | SH2 binding enrichment (Grb2 SH2) | SH2 binding enrichment (SHP2-C SH2) | SH2 binding enrichment (c-Src SH2)
18 | YFRDGCMPRQY [GSS_Y270_Y270C] | 0.364 | 0.602 | 0.438 | 0.883 | 0.72 | 0.43 | 0.552 | 0.833 | 0.948 | 0.938 | 0.406 | 0.505 | 0.6 | 1.08 | 0.637 | 0.499
19 | MSSLYYANTLF [HOXB7_Y6] | 4.4 | 10.7 | 5.94 | 5.82 | 8.46 | 4.32 | 12.8 | 3.08 | 1.01 | 1.32 | 10.8 | 5.33 | 6.15 | 2.87 | 0.739 | 1.24
20 | SVVVPYEPPVV [TP53_Y220_E224V] | 0.437 | 0.518 | 0.437 | 0.61 | 0.659 | 0.453 | 0.574 | 0.731 | 0.921 | 1 | 0.397 | 0.457 | 0.446 | 0.709 | 0.627 | 0.606
21 | PESIMYPKFTT [NTRK3_Y744_R745P] | 0.397 | 0.513 | 0.739 | 0.794 | 0.595 | 0.707 | 0.586 | 0.717 | 1.09 | 0.66 | 0.579 | 0.549 | 0.656 | 0.748 | 0.594 | 0.596
22 | LAVVDYMRRQK [ATM_Y1915] | 0.553 | 0.285 | 0.453 | 0.437 | 0.604 | 0.413 | 0.337 | 0.605 | 0.655 | 0.674 | 0.513 | 0.374 | 0.373 | 0.675 | 0.652 | 0.531
23 | DGPVNYEEFVQ [CALM2_Y139_Q136P] | 0.532 | 1.27 | 0.529 | 0.725 | 0.748 | 0.482 | 1.08 | 1.18 | 1.12 | 1.17 | 0.474 | 0.601 | 0.514 | 0.848 | 0.656 | 0.418
24 | VKFGAYINDFK [GLB1_Y488_N484K_YF] | 0.468 | 0.596 | 0.523 | 0.879 | 0.737 | 0.431 | 0.572 | 1.05 | 1.02 | 0.839 | 0.412 | 0.406 | 0.466 | 4.55 | 1.06 | 1.3
25 | TVEDHYYEGGI [TKT_Y563] | 0.588 | 0.789 | 0.565 | 1.9 | 0.745 | 0.589 | 0.583 | 1.06 | 1.23 | 1.27 | 0.574 | 0.636 | 1.72 | 0.569 | 0.482 | 3.79
26 | GTPVMYTFDEF [COL10A1_Y623_YF] | 0.668 | 0.621 | 0.474 | 0.806 | 0.767 | 0.733 | 0.611 | 1.16 | 1.16 | 1.03 | 1.03 | 0.473 | 0.504 | 0.89 | 0.693 | 0.662
27 | RSSKRYLKTRS [LPL_Y329_M328R] | 0.713 | 0.919 | 0.894 | 1.11 | 1.03 | 0.937 | 1.11 | 0.725 | 1.17 | 1.4 | 1.24 | 0.852 | 1.03 | 0.628 | 0.58 | 0.504
28 | SNTFLYQLVFD [EXO1_Y284_N279S] | 2.22 | 5.47 | 2.63 | 1.9 | 0.784 | 1.61 | 3.93 | 1.36 | 1.49 | 1.56 | 5.86 | 4.62 | 1.69 | 1.17 | 1.05 | 0.833
29 | PQGVSYIFTID [DCX_Y103_R102S_YF] | 0.486 | 0.726 | 0.509 | 0.893 | 0.812 | 0.729 | 0.692 | 1.48 | 1.74 | 0.94 | 0.591 | 0.495 | 0.456 | 0.902 | 1.73 | 0.553
30 | LLNAIYLSAKW [SERPING1_Y294] | 1.04 | 1.3 | 2.18 | 2.29 | 1.22 | 1.12 | 0.794 | 1.41 | 1.66 | 1.61 | 0.503 | 0.692 | 0.464 | 1.06 | 0.553 | 0.686
31 | RPPELYALMSD [ZAP70_Y569_C564R] | 1.84 | 14.6 | 2.17 | 1.36 | 1.81 | 1.28 | 3.94 | 2.28 | 2.19 | 2.05 | 15.2 | 1.17 | 1.44 | 0.958 | 0.895 | 1.23
32 | ADLVQYYMEHH [PTPN11_Y80_E76D] | 0.84 | 1.16 | 0.967 | 1.18 | 0.751 | 0.668 | 0.806 | 0.914 | 1.12 | 1.18 | 0.642 | 0.464 | 1.04 | 0.796 | 0.919 | 0.714
33 | CHKCTYKVTGL | 0.504 | 0.444 | 0.472 | 0.693 | 0.523 | 0.49 | 0.462 | 0.556 | 0.682 | 0.622 | 0.453 | 0.419 | 0.488 | 1.46 | 1.46 | 1.34
